According to PMC3248755:

Substrate: CSC(=N)NCCC[C@H](N)C(=O)O
Experiment: steady-state kinetics
Type: biochemical, Homo sapiens

B1: human dimethylarginine dimethylaminohydrolase-1 (DDAH-1) (Homo sapiens) (protein)
chain: MAGLGHPAAFGRATHAVVRALPESLGQHALRSAKGEEVDVARAERQHQLYVGVLGSKLGLQVVELPADESLPDCVFVEDVAVVCEETALITRPGAPSRRKEVDMMKEALEKLQLNIVEMKDENATLDGGDVLFTGREFFVGLSKRTNQRGAEILADTFKDYAVSTVPVADGLHLKSFCSMAGPNLIAIGSSESAQKALKIMQQMSDHRYDKLTVPDDIAANCIYLNIPNKGHVLLHRTPEEYPESAKVYEKLKDHMLIPVSMSELEKVDGLLTCCSVLINKKVDS
- Km: 0.37 ± 0.03 µM
